Target: Recombinant CdaA fragment spanning residues 88-273 (CdaA_(88-273)), Leptospira interrogans LIC10844 (Leptospira interrogans serovar Copenhageni strain Fiocruz L1-130)
Assay: SEC; TSKgel G4000SWXL column, PBS as mobile phase, 1.0 mL min^-1; 50 µg of protein injected; MW estimated from a standard curve of 15-600 kDa protein standards

In the case of “Recombinant CdaA fragment spanning residues 88-273 (CdaA_(88-273)), Leptospira interrogans LIC10844 (domain or fragment)”, the stoichiometry N is reported as 2.
